# Experimental data reported in US20070048219A1 (Genentech, published 2007).
# Several values for one entry are separate records, joined by “and”; a condition that tells them apart may be missing. Equal entries are not always repeated.
# T1: recombinant human IL-8, (ser-IL-8)72 (human, UniProt P10145 28-99, 125I label on tyrosine in the tracer form; the letters do not carry it)
# T1 construct: also called human wild type IL-8; HuIL-8
# T1 sequence: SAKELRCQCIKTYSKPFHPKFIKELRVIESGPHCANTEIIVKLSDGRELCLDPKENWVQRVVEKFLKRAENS
# T2: rabbit IL-8 (rabbit, UniProt P19874 23-101, limits assumed)
# T2 sequence (looked up): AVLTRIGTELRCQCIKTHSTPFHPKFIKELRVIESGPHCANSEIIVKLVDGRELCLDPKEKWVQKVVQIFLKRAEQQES
# T3: β-TG (UniProt P02775 48-128)
# T3 construct: also called b-TG
# T3 sequence (looked up): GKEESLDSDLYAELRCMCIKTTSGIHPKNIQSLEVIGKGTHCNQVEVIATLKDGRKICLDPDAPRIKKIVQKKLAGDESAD
# T4: MGSA (UniProt P09341 35-107)
# T4 sequence (looked up): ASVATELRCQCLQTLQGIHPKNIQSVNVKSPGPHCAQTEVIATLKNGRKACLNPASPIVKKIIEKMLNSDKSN
# T5: C5a (UniProt P01031 678-751)
# T5 sequence (looked up): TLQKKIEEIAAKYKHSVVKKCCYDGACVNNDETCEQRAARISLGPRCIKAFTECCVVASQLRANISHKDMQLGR
# T6: PF4 (UniProt P02776 32-101)
# T6 construct: also called platelet factor 4
# T6 sequence (looked up): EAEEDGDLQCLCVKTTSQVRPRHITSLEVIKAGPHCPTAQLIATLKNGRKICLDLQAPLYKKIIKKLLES
# T7: rhesus IL-8 (rhesus, UniProt P67813 23-101, limits assumed)
# T7 sequence (looked up): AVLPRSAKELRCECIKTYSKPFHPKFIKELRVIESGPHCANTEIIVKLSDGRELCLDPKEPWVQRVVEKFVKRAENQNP
# B1: 6G4V11N35A F(ab')2 leucine zipper (other)
# light: DIQMTQSPSSLSASVGDRVTITCRSSQSLVHGIGATYLHWYQQKPGKAPKLLIYKVSNRFSGVPSRFSGSGSGTDFTLTISSLQPEDFATYYCSQSTHVPLTFGQGTKVEIKRTVAAPSVFIFPPSDEQLKSGTASVVCLLNNFYPREAKVQWKVDNALQSGNSQESVTEQDSKDSTYSLSSTLTLSKADYEKHKVYACEVTHQGLSSPVTKSFNRGEC
# heavy: not shown
# notes: F(ab')2; also called 6G4.2.5V11N35A F(ab')2; F(ab')2 control
# B2: murine anti-rabbit IL-8 monoclonal antibody 6G4.2.5 (antibody, mouse IgG2a, V domains shown)
# VH: EIQLQQSGPELMKPGASVKISCKASGYSFSSHYMHWVKQSHGKSLEWIGYIDPSNGETTYNQKFKGKATLTVDTSSSTANVHLSSLTSDDSAVYFCARGDYRYNGDWFFDVWGAGTTVTVSS
# VL: DIVMTQTPLSLPVSLGDQASISCRSSQSLVHGIGNTYLHWYLQKPGQSPKLLIYKVSNRFSGVPDRFSGSGSGTDFTLRISRVEAEDLGLYFCSQSTHVPLTFGAGTKLELK
# notes: full length murine IgG2a from hybridoma ATCC HB 11722; also called 6G4 murine mAb; intact murine 6G4.2.5 antibody
# B3: anti-IL-8 monoclonal antibody 5.12.14 (antibody, mouse IgG2a, V domains shown)
# VH: EVQLVESGGGLVPPGGSLKLSCAASGFIFSSYGMSWVRQTPGKSLELVATINNNGDSTYYPDSVKGRFTISRDNAKNTLYLQMSSLKSEDTAMFYCARALISSATWFGYWGQGTLVTVSA
# VL: DIVMTQSQKFMSTSVGDRVSVTCKASQNVGTNVAWYQQKPGQSPKALIYSSSYRYSGVPDRFTGSGSGTDFTLTISHVQSEDLADYFCQQYNIYPLTFGPGTKLELK
# notes: murine IgG2a from hybridoma ATCC HB 11553
# B4: humanized 6G425 F(ab)-9 (humanized 6G4V11 Fab) (Fab, V domains shown)
# VH: EVQLVQSGGGLVQPGGSLRLSCAASGYSFSSHYMHWVRQAPGKGLEWVGYIDPSNGETTYNQKFKGRFTLSRDNSKNTAYLQMNSLRAEDTAVYYCARGDYRYNGDWFFDVWGQGTLVTVSS
# VL: DIQMTQSPSSLSASVGDRVTITCRSSQSLVHGIGNTYLHWYQQKPGKAPKLLIYKVSNRFSGVPSRFSGSGSGTDFTLTISSLQPEDFATYYCSQSTHVPLTFGQGTKVEIKR
# notes: F(ab)-6 with murine Gln for Glu at H6; also called version 11; 6G4.2.5V11
# B5: humanized 6G425 F(ab)-6 (Fab, V domains shown)
# VH: EVQLVESGGGLVQPGGSLRLSCAASGYSFSSHYMHWVRQAPGKGLEWVGYIDPSNGETTYNQKFKGRFTLSRDNSKNTAYLQMNSLRAEDTAVYYCARGDYRYNGDWFFDVWGQGTLVTVSS
# VL: DIQMTQSPSSLSASVGDRVTITCRSSQSLVHGIGNTYLHWYQQKPGKAPKLLIYKVSNRFSGVPSRFSGSGSGTDFTLTISSLQPEDFATYYCSQSTHVPLTFGQGTKVEIKR
# notes: also called version 8
# B6: 6G4V11N35A Fab (Fab, V domains shown)
# VH: EVQLVQSGGGLVQPGGSLRLSCAASGYSFSSHYMHWVRQAPGKGLEWVGYIDPSNGETTYNQKFKGRFTLSRDNSKNTAYLQMNSLRAEDTAVYYCARGDYRYNGDWFFDVWGQGTLVTVSS
# VL: DIQMTQSPSSLSASVGDRVTITCRSSQSLVHGIGATYLHWYQQKPGKAPKLLIYKVSNRFSGVPSRFSGSGSGTDFTLTISSLQPEDFATYYCSQSTHVPLTFGQGTKVEIKR
# notes: also called 6G4.2.5V11N35A Fab; Fab control
# B7: full length 6G4V11N35E IgG1 (antibody, V domains shown, not shown: a dimerising Fc or GST)
# VH: EVQLVQSGGGLVQPGGSLRLSCAASGYSFSSHYMHWVRQAPGKGLEWVGYIDPSNGETTYNQKFKGRFTLSRDNSKNTAYLQMNSLRAEDTAVYYCARGDYRYNGDWFFDVWGQGTLVTVSS
# VL: DIQMTQSPSSLSASVGDRVTITCRSSQSLVHGIGETYLHWYQQKPGKAPKLLIYKVSNRFSGVPSRFSGSGSGTDFTLTISSLQPEDFATYYCSQSTHVPLTFGQGTKVEIKR
# notes: made in CHO cells
# How the values were obtained:
# [1] = biological target: T1, recombinant human IL-8, (ser-IL-8)72; assay: competition binding: the F(ab')2 inhibits binding of 125I-IL-8 to human neutrophils; value in the legend box without a column head, IC50
# Procedure: (§1) Neutrophils were prepared by using Mono-Poly Resolving Medium (M-PRM) (Flow Lab. Inc., McLean. Va.). Briefly fresh, heparinized human blood was loaded onto M-PRM at a ratio of blood to medium, 3.5:3.0, and centrifuged at 300×g for 30 min at room tem perature. Neutrophils enriched at the middle layer were collected and washed once in PBS. […] The receptor binding assay was done as follows. […] The supernatant was removed by aspiration and the radioactivity associated with the pellet was counted in a gamma counter.
# The procedures used are described in Sections (B)(1), (B)(2) and (B)(3) above.
# [2] = biological target: T1, recombinant human IL-8, (ser-IL-8)72; assay: KinExA automated immunoassay, human IL-8, IL-8-coated beads; column Kd of the drawn table
# Procedure: (§2) The beads were resuspended in assay buffer (0.1% bovine serum albumin in PBS) to a final volume of 30 ml.
# (§3) The equilibrium constant (Kd) was calculated using the software provided by Sapidyne Instruments Inc.
# [3] = biological target: T1, recombinant human IL-8, (ser-IL-8)72; assay: competition binding: the F(ab')2 is varied (Cold Ligand, nM) and blocks 125I-IL-8 binding to IL-8 receptors on human neutrophils
# Description: (§4) The displacement curves from a representative binding experiment performed in duplicate is depicted in FIG. 38.
# rabbit IL-8 = biological target: T2, rabbit IL-8; assay: cell-based or functional assay
# human monomeric IL-8 = human monomeric IL-8 (human); assay: cell-based or functional assay
# [4] = biological target: T1, recombinant human IL-8, (ser-IL-8)72; assay: cell-based or functional assay
# [5] = biological target: T1, recombinant human IL-8, (ser-IL-8)72; assay: competition binding: the antibody is varied (Cold Ligand, nM) and blocks 125I-IL-8 binding to IL-8 receptors on human neutrophils
# Procedure: (§5) The periplasmic fraction was collected and passed over a Hi-Trap Protein-G column (Pharmacia, Piscataway, N.J.) followed by a desalting and concentration step. The protein was analyzed by SDS-PAGE, mass spectrometry and amino acid analysis.
# [6] = biological target: T1, recombinant human IL-8, (ser-IL-8)72; assay: KinExA equilibrium constant; column head Kd
# Procedure: as §2, §3
# β-TG = biological target: T3, β-TG; assay: ELISA, cytokines coated onto plates
# TNF = TNF (UniProt P01375 77-233, limits assumed); assay: ELISA, cytokines coated onto plates
# TNF, sequence (P01375 77-233 limits assumed): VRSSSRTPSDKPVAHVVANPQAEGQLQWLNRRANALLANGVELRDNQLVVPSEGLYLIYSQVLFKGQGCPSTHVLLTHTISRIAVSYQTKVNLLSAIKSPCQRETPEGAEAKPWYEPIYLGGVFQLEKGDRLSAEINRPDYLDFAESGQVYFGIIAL
# MGSA = biological target: T4, MGSA; assay: ELISA, cytokines coated onto plates
# C5a = biological target: T5, C5a; assay: ELISA, cytokines coated onto plates
# PF4 = biological target: T6, PF4; assay: ELISA, cytokines coated onto plates
# [7] = biological target: T1, recombinant human IL-8, (ser-IL-8)72; assay: competition: inhibition of 125I-IL-8 binding to human neutrophils
# [8] = biological target: T1, recombinant human IL-8, (ser-IL-8)72; assay: competitive RIP with unlabeled IL-8, Scatchard analysis
# [9] = biological target: T1, recombinant human IL-8, (ser-IL-8)72; assay: competition binding: the Fab is varied (Cold Ligand, nM) and blocks 125I-IL-8 binding to IL-8 receptors on human neutrophils
# Procedure: as §5
# rhesus IL-8 = biological target: T7, rhesus IL-8; assay: cell-based or functional assay
# [10] = biological target: T1, recombinant human IL-8, (ser-IL-8)72; assay: competition: inhibition of iodinated IL-8 binding to human neutrophils
# [11] = biological target: T1, recombinant human IL-8, (ser-IL-8)72; assay: competition binding: the Fab is varied (Cold Ligand, nM) and blocks 125I-IL-8 binding to IL-8 receptors on human neutrophils; remark: listed apart in the source
# Description: as §4
# [12] = biological target: T1, recombinant human IL-8, (ser-IL-8)72; assay: competition binding: the Fab inhibits binding of 125I-IL-8 to human neutrophils; Bound/Total against antibody competitor (nM)
# [13] = biological target: T1, recombinant human IL-8, (ser-IL-8)72; assay: as above; remark: listed apart in the source
# [14] = biological target: T1, recombinant human IL-8, (ser-IL-8)72; assay: competition: inhibition of IL-8 binding to human neutrophils (experiment of FIG. 54B); Fab control of FIG. 54B
# [15] = biological target: T1, recombinant human IL-8, (ser-IL-8)72; assay: KinExA, IL-8-coated beads, solution equilibrium
# Procedure: as §2, §3
# [16] = biological target: T1, recombinant human IL-8, (ser-IL-8)72; assay: competition binding: the antibody inhibits binding of 125I-IL-8 to human neutrophils; Bound/Total against cold ligand (nM)
# Procedure: as §1
# [17] = biological target: T1, recombinant human IL-8, (ser-IL-8)72; assay: KinExA, IL-8-coated beads
# Procedure: as §2, §3
binder,measurement,setting,value
B1,IC50,[1],283 pM
same,Kd,[2],109 pM
same,IC50 (read off the curve),[3],~800 pM
same,"average IC50, inhibition of IL-8 mediated neutrophil chemotaxis",rabbit IL-8,4000 pM
same,"average IC50, inhibition of IL-8 mediated neutrophil chemotaxis",human monomeric IL-8,1000 pM
same,"average IC50, inhibition of human IL-8 mediated neutrophil chemotaxis",[4],1500 pM
B2,IC50 (read off the curve),[5],~7000 pM
same,Kd,[6],350 pM
same,binding result,β-TG,no binding
same,binding result,TNF,no binding
same,binding result,MGSA,no binding
same,binding result,C5a,no binding
same,binding result,PF4,no binding
same,IC50,[7],5000 pM
B3,Kd,[8],300 pM
B4,IC50 (read off the curve),[9],~6000 pM
same,"IC50, inhibition of IL-8 mediated neutrophil chemotaxis",rhesus IL-8,~22000 pM
same,"IC50, inhibition of IL-8 mediated neutrophil chemotaxis",human monomeric IL-8,~15000 pM
B5,IC50,[10],34600 pM
B6,IC50 (read off the curve),[11],1000 to 2000 pM
same,IC50,[12],294 pM
same,IC50,[13],264 pM and 468 pM
same,"average IC50, inhibition of IL-8 mediated neutrophil chemotaxis",rabbit IL-8,5000 pM
same,"average IC50, inhibition of IL-8 mediated neutrophil chemotaxis",human monomeric IL-8,1000 pM
same,"IC50, blocking IL-8 mediated chemotaxis",[4],800 pM
same,"average IC50, inhibition of human IL-8 mediated neutrophil chemotaxis",[4],2700 pM
same,IC50,[14],802 pM
same,Kd,[15],~114 pM
B7,IC50,[16],468 pM
same,IC50,[7],~500 pM
same,"IC50, inhibition of IL-8 mediated human neutrophil chemotaxis",[4],6000 pM
same,Kd,[17],~49 pM
